Test results from publication PMC3919171.

Columns and labels:
[1] = target: collagen VI monomer with the murine collagen VI α3 chain (N9-C5) carrying the R1061Q mutation (mouse | human (endogenous in SaOS-2)); assay: non-reducing agarose/polyacrylamide composite gel electrophoresis with immunoblot; culture medium (4-14 days) and cell extracts of transfected SaOS-2 cells, SDS loading buffer with 2 M urea, non-reducing, 0.5% agarose/2.4% polyacrylamide; detected with an antibody against the α3 C terminus; sizes from purified collagen VI as a standard; monomers to tetramers
[2] = target: collagen VI monomer with the wild-type murine collagen VI α3 chain (N9-C5) (mouse | human (endogenous in SaOS-2)) (UniProt P12109); assay: as above

| Substance | stoichiometry N [1] | stoichiometry N [2] |
| --- | --- | --- |
| collagen VI monomer with the murine collagen VI α3 chain (N9-C5) carrying the R1061Q mutation (from UniProt P12109 20-1028; P12110 21-1019) (complex) | 4 | – |
| collagen VI monomer with the wild-type murine collagen VI α3 chain (N9-C5) (from UniProt P12109 20-1028; P12110 21-1019) (complex) | – | 4 |
